Laboratory results published in PMC9482650, “Quantitative fragmentomics allow affinity mapping of interactomes” (Nature Communications, 2022).

T1: APBA1_2, Q02410
T1 sequence (Q02410 742-832, limits assumed, looked up): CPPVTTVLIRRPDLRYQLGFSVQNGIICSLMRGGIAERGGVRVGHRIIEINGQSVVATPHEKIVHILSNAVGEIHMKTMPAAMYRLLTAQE

T2: APBA2_1, Q99767
T2 sequence (Q99767 563-664, limits assumed, looked up): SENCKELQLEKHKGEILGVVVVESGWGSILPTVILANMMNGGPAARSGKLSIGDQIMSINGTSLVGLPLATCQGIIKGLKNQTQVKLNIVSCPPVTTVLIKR

T3: DLG3_3, Q92796
T3 sequence (Q92796 374-475, limits assumed, looked up): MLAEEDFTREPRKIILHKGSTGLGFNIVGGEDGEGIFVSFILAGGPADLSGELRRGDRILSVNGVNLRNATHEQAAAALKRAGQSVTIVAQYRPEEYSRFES

T4: MPDZ_10, O75970
T4 sequence (O75970 1624-1722, limits assumed, looked up): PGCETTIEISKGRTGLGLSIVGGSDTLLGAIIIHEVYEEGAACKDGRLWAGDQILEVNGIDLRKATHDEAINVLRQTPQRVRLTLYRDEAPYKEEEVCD

T5: NHERF3_1, Q5T2W1
T5 sequence (Q5T2W1 4-100, limits assumed, looked up): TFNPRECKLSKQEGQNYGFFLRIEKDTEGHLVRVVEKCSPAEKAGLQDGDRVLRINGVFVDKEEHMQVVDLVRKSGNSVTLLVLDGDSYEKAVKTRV

T6: PARD3B_1, Q8TEW8
T6 sequence (Q8TEW8 196-299, limits assumed, looked up): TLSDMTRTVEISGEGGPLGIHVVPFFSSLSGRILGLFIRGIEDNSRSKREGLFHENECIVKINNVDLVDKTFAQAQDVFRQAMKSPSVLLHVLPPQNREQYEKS

T7: PDZRN3_1, Q9UPQ7
T7 sequence (Q9UPQ7 244-349, limits assumed, looked up): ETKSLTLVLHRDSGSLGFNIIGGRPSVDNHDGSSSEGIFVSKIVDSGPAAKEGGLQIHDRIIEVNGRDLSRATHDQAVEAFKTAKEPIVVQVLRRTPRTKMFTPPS

T8: PTPN13_1, Q12923
T8 sequence (Q12923 1088-1188, limits assumed, looked up): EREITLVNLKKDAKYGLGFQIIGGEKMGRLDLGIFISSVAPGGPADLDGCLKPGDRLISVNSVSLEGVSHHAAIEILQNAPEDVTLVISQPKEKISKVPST

T9: SNTG2, Q9NY99
T9 sequence (Q9NY99 68-166, limits assumed, looked up): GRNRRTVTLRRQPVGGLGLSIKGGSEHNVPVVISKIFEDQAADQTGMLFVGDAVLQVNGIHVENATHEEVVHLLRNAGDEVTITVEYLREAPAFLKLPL

T10: TIAM2, Q8IVF5
T10 sequence (Q8IVF5 885-986, limits assumed, looked up): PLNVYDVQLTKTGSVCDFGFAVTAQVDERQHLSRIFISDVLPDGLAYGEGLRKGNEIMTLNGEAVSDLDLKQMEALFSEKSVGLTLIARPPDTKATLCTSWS


What was measured:
Experiment in all cases: holdup assay
Parameters in all cases: key: below the threshold = too weak to quantify, mostly under pKd 3.1 to 4
Settings in all cases: plain residues with an end cap or a label only (N-terminal biotin on a linker: ado-ado)
[1] = target: T1, APBA1_2, Q02410
[2] = target: T2, APBA2_1, Q99767
[3] = target: CASK, O14936
[4] = target: T3, DLG3_3, Q92796
[5] = target: FRMPD2_2, Q68DX3
[6] = target: FRMPD2_3, Q68DX3
[7] = target: GORASP1, Q9BQQ3
[8] = target: GRIP2_3, Q9C0E4
[9] = target: GRIP2_4, Q9C0E4
[10] = target: GRIP2_5, Q9C0E4
[11] = target: GRIP2_6, Q9C0E4
[12] = target: HTRA2, O43464
[13] = target: Inadl_2, Q8NI35
[14] = target: LAP2, Q96RT1
[15] = target: LNX1_1, Q8TBB1
[16] = target: LNX1_2, Q8TBB1
[17] = target: MAGI1_1, Q96QZ7
[18] = target: T4, MPDZ_10, O75970
[19] = target: NHERF2_2, Q15599
[20] = target: T5, NHERF3_1, Q5T2W1
[21] = target: T6, PARD3B_1, Q8TEW8
[22] = target: PARD3_3, Q8TEW0
[23] = target: T7, PDZRN3_1, Q9UPQ7
[24] = target: T8, PTPN13_1, Q12923
[25] = target: T9, SNTG2, Q9NY99
[26] = target: T10, TIAM2, Q8IVF5
[27] = target: TJP1_3, Q07157
TJP1_3, Q07157, sequence (Q07157 416-512): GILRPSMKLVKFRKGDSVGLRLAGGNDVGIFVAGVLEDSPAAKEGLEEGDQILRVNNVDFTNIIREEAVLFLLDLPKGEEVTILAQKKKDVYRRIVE

GRIP2_6, Q9C0E4, sequence (Q9C0E4 648-740): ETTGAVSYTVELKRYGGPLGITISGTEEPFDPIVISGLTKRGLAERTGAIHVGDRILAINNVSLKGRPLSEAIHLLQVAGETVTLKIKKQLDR
LNX1_1, Q8TBB1, sequence (Q8TBB1 261-371): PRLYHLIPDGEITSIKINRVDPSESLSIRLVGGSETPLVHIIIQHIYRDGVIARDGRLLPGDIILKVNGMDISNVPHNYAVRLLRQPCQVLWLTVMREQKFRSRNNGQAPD
GORASP1, Q9BQQ3, sequence (Q9BQQ3 1-208): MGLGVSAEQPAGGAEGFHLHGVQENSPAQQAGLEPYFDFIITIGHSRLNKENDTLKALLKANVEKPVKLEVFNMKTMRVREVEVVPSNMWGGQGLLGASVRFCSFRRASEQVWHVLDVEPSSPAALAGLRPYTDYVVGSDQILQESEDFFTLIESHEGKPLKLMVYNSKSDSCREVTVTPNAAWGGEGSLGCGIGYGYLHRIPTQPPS
LNX1_2, Q8TBB1, sequence (Q8TBB1 371-470): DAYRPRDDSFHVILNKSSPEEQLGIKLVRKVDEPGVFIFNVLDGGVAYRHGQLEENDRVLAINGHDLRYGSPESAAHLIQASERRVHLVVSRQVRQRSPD
FRMPD2_2, Q68DX3, sequence (Q68DX3 944-1038): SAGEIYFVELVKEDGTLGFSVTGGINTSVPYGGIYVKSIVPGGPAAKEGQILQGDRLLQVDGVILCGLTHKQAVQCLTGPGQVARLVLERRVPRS
NHERF2_2, Q15599, sequence (Q15599 142-238): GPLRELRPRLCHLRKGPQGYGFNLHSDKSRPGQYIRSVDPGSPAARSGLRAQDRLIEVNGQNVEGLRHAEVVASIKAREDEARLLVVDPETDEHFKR
PARD3_3, Q8TEW0, sequence (Q8TEW0 582-685): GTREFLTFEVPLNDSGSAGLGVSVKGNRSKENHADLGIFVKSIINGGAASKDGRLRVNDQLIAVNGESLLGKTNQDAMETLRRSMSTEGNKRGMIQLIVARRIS
CASK, O14936, sequence (O14936 487-570): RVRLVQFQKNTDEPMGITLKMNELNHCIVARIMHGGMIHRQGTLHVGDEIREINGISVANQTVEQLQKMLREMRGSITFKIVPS
FRMPD2_3, Q68DX3, sequence (Q68DX3 1073-1166): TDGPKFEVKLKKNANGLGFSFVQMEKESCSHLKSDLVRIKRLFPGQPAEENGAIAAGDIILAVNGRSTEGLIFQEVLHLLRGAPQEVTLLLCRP
GRIP2_5, Q9C0E4, sequence (Q9C0E4 544-642): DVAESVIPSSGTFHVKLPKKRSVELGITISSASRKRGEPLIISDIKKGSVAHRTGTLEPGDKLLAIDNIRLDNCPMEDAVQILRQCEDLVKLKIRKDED
LAP2, Q96RT1, sequence (Q96RT1 other isoform, or with tags, fused parts or gaps): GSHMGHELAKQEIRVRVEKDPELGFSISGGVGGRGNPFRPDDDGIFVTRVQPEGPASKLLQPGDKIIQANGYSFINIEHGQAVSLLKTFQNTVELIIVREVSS
HTRA2, O43464, sequence (O43464 355-458): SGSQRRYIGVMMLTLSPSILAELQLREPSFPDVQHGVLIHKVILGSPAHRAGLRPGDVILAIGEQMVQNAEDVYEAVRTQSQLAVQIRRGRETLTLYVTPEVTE
Inadl_2, Q8NI35, sequence (Q8NI35 238-335): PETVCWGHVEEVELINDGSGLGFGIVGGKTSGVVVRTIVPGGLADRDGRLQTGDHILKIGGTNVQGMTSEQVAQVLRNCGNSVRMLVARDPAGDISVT
GRIP2_4, Q9C0E4, sequence (Q9C0E4 446-548): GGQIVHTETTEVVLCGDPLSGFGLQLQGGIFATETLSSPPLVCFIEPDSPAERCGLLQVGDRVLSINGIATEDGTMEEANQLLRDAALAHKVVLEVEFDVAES
GRIP2_3, Q9C0E4, sequence (Q9C0E4 238-339): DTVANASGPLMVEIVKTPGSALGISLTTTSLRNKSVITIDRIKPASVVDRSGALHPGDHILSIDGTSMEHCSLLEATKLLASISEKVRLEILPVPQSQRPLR
MAGI1_1, Q96QZ7, sequence (Q96QZ7 1-106): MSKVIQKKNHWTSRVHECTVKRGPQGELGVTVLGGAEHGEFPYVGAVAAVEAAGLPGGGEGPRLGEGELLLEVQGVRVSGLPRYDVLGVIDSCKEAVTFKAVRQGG

Row | Binder | pKd [1] | pKd [2] | pKd [3] | pKd [4] | pKd [5] | pKd [6] | pKd [7] | pKd [8] | pKd [9] | pKd [10] | pKd [11] | pKd [12] | pKd [13] | pKd [14] | pKd [15] | pKd [16] | pKd [17] | pKd [18] | pKd [19] | pKd [20] | further results
1 | VRNLPESEEL [MYOZ3, Q8TDC0] | below the threshold | below the threshold | below the threshold | below the threshold | below the threshold | below the threshold | below the threshold | below the threshold | below the threshold | below the threshold | below the threshold | below the threshold | below the threshold | below the threshold | below the threshold | below the threshold | below the threshold | below the threshold | 3.64 | 3.88 | pKd [21]: 3.58; pKd [22]: below the threshold; pKd [23]: below the threshold; pKd [24]: below the threshold; pKd [25]: below the threshold; pKd [26]: below the threshold; pKd [27]: below the threshold
2 | LPHGHSTTRV [NLGN4X, Q8N0W4] | 3.54 | below the threshold | below the threshold | 4.27 | 3.63 | below the threshold | 3.76 | below the threshold | below the threshold | below the threshold | below the threshold | below the threshold | below the threshold | 3.67 | 3.79 | 3.54 | below the threshold | 3.83 | 3.78 | 3.88 | pKd [21]: below the threshold; pKd [22]: below the threshold; pKd [23]: 3.78; pKd [24]: below the threshold; pKd [25]: 4; pKd [26]: below the threshold; pKd [27]: below the threshold
3 | YYKRPVQEWV [MMP24, Q9Y5R2] | 5.02 | below the threshold | below the threshold | below the threshold | below the threshold | 3.52 | 4.9 | 3.48 | below the threshold | below the threshold | below the threshold | 4.4 | 3.94 | 4.51 | 3.5 | 3.71 | 3.48 | below the threshold | below the threshold | 4.24 | pKd [21]: below the threshold; pKd [22]: 3.73; pKd [23]: below the threshold; pKd [24]: below the threshold; pKd [25]: below the threshold; pKd [26]: 4.08; pKd [27]: 4.34
4 | SKSNFGSEPL [KIF17, Q9P2E2] | below the threshold | below the threshold | below the threshold | below the threshold | below the threshold | below the threshold | below the threshold | below the threshold | below the threshold | below the threshold | below the threshold | below the threshold | below the threshold | below the threshold | below the threshold | below the threshold | below the threshold | below the threshold | below the threshold | 3.94 | pKd [21]: 3.65; pKd [22]: below the threshold; pKd [23]: below the threshold; pKd [24]: below the threshold; pKd [25]: below the threshold; pKd [26]: below the threshold; pKd [27]: below the threshold
5 | DTTVPESEDL [MYOZ2, Q9NPC6] | below the threshold | below the threshold | below the threshold | below the threshold | below the threshold | below the threshold | below the threshold | below the threshold | below the threshold | below the threshold | below the threshold | below the threshold | below the threshold | below the threshold | below the threshold | below the threshold | below the threshold | below the threshold | 4.27 | below the threshold | pKd [21]: below the threshold; pKd [22]: below the threshold; pKd [23]: below the threshold; pKd [24]: below the threshold; pKd [25]: below the threshold; pKd [26]: below the threshold; pKd [27]: below the threshold
